Measured values as given in US20200087364A1 (IMMATICS BIOTECHNOLOGIES, published 2020).

What follows are binders tested against T1, HLA-A*01:01 (human) (assay: UV-ligand exchange, anti-b2m ELISA).
T1 construct: MHC class I monomer first loaded with a UV-sensitive peptide (not identified) that is cleaved by UV irradiation and exchanged for the tested peptide; captured on streptavidin plates, detected with anti-β2m; also called peptide-receptive MHC molecules
Text: Candidate peptides for T cell based therapies according to the present invention were further tested for their MHC binding capacity (affinity). The individual peptide-MHC complexes were produced by UV-ligand exchange, where a UV-sensitive peptide is cleaved upon UV-irradiation and exchanged with the peptide of interest as analyzed. Only peptide candidates that can effectively bind and stabilize the peptide-receptive MHC molecules prevent dissociation of the MHC complexes. To determine the yield of the exchange reaction, an ELISA was performed based on the detection of the light chain (β2m) of stabilized MHC complexes. The assay was performed as generally described in Rodenko et al. (Rodenko et al., 2006)
96 well MAXISorp plates (NUNC) were coated over night with 2 ug/ml streptavidin in PBS at room temperature, washed 4× and blocked for 1 h at 37° C. in 2% BSA containing blocking buffer. Refolded HLA-A*02:01/MLA-001 monomers served as standards, covering the range of 15-500 ng/ml. Peptide-MHC monomers of the UV-exchange reaction were diluted 100-fold in blocking buffer. Samples were incubated for 1 h at 37° C., washed four times, incubated with 2 ug/ml HRP conjugated anti-β2m for 1 h at 37° C., washed again and detected with TMB solution that is stopped with […]. Absorption was measured at 450 nm.

Binder	peptide exchange yield
RAVQPGETY	50 to 75%
SVTDLIGGKW	20 to 50%
LCAAVLAKY	20 to 50%
SQNGQLIHY	50 to 75%
STDPNIVRK	50 to 75%
VDPIGHLY	20 to 50%
LTEGHSGNY	> 75%
TSEVEGLAFVSY	50 to 75%
ASWAVLCYY	50 to 75%
TQKSVQVLAY	20 to 50%
AVSSGLFFY	20 to 50%
RTDEGDNRVW	20 to 50%
KLAGTVFQY	20 to 50%
RLAQYTIERY	20 to 50%
TVDNANILL	20 to 50%
QSTTGVSHY	50 to 75%
GLEYEAPKLY	20 to 50%
LVDGKWQEF	20 to 50%
NSMLDPLVY	> 75%
TDVERIKDTY	50 to 75%
RMQEGSEVY	20 to 50%
NVKEAPTEY	20 to 50%
GSPDAVVSY	10 to 20%

Binder	peptide exchange yield
ITDFGLAKL	20 to 50%
KLTDYINANY	20 to 50%
DIPDYLLQY	50 to 75%
VSSTVHNLY	> 75%
RSDPVSLRY	> 75%
LAFYYGMY	20 to 50%
FTRAFDQLRM	50 to 75%
YTADNEMGYY	50 to 75%
VQIAKGMNY	50 to 75%
FSEPFHLIV	50 to 75%
NSDESADSEPHKY	> 75%
NAVDVVPSSF	10 to 20%
TQRTSFQFY	20 to 50%
VQPGETYTY	50 to 75%
AQISDTGRY	20 to 50%
SLPEFGLTY	20 to 50%
VQDPSLPVY	20 to 50%
LSAQHRMLA	20 to 50%
YLNEWGSRF	20 to 50%
CYTADNEMGY	50 to 75%
VSDSTTEITY	50 to 75%
EADPFLKYL	20 to 50%
NDEIDKLTGY	> 75%

Binder	peptide exchange yield
DVERIKDTY	20 to 50%
MMTDLTSVY	50 to 75%
DTLEAATSLY	20 to 50%
VSVYNSYPY	20 to 50%
HTDLESPSAVY	50 to 75%
LSQDELSKF	20 to 50%
VMDTLGLFY	> 75%
FRGVFVHRY	20 to 50%
YHRICELLSDY	> 75%
KTELETALYY	50 to 75%
TQPELSSRY	20 to 50%
LLEGEDAHLTQY	50 to 75%
LADTDLGMTF	20 to 50%
LLISKAEDY	20 to 50%
LSSAVNPIIY	20 to 50%
KTIQEVAGY	20 to 50%
SLPEFGLTYY	20 to 50%
QTDINGGSLK	50 to 75%
FTAQLQLY	50 to 75%
LLEADPFLKY	> 75%
SSTDFTFASW	10 to 20%
LMDEGAVLTL	20 to 50%
